From article PMC7545097, “Mapping the native interaction surfaces of PREP1 with PBX1 by cross-linking mass-spectrometry and mutagenesis” (Scientific Reports, 2020)

T1: PREP1_(1-436), wild-type recombinant (TR-FIA) (UniProt P55347 1-436)
T1 construct: also called wild-type PREP1; PKNOX1; source: E. coli, purified
T1 sequence (looked up): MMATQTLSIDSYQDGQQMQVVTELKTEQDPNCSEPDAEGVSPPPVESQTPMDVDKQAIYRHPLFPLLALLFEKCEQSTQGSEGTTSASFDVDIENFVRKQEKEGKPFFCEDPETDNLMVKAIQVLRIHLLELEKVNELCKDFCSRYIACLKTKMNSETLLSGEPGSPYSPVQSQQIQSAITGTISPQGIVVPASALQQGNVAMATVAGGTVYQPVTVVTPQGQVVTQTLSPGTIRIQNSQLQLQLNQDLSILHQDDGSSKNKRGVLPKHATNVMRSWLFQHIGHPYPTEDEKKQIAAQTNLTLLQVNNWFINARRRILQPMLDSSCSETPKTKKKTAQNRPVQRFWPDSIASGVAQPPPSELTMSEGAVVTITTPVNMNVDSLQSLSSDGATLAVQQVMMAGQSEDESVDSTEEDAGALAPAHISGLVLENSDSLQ

B1: PBX1 I84A (natural protein, human, UniProt P40424 1-430, looked up)
chain: MDEQPRLMHSHAGVGMAGHPGLSQHLQDGAGGTEGEGGRKQDIGDILQQIMTITDQSLDEAQARKHALNCHRMKPALFNVLCEAKEKTVLSIRGAQEEEPTDPQLMRLDNMLLAEGVAGPEKGGGSAAAAAAAAASGGAGSDNSVEHSDYRAKLSQIRQIYHTELEKYEQACNEFTTHVMNLLREQSRTRPISPKEIERMVSIIHRKFSSIQMQLKQSTCEAVMILRSRFLDARRKRRNFNKQATEILNEYFYSHLSNPYPSEEAKEELAKKCGITVSQVSNWFGNKRIRYKKNIGKFQEEANIYAAKTAVTATNVSAHGSQANSPSTPNSAGSSSSFNMSNSGDLFMSVQSLNGDSYQGAQVGANVQSQVDTLRHVISQTGGYSDGLAASQMYSPQGISANGGWQDATTPSSVTSPTEGPGSVHSDTSN
notes: PBX1, residues 1-430; source: E. coli, purified
B2: PBX1 L77A/V80A (natural protein, human, UniProt P40424 1-430, looked up)
chain: MDEQPRLMHSHAGVGMAGHPGLSQHLQDGAGGTEGEGGRKQDIGDILQQIMTITDQSLDEAQARKHALNCHRMKPAAFNALCEIKEKTVLSIRGAQEEEPTDPQLMRLDNMLLAEGVAGPEKGGGSAAAAAAAAASGGAGSDNSVEHSDYRAKLSQIRQIYHTELEKYEQACNEFTTHVMNLLREQSRTRPISPKEIERMVSIIHRKFSSIQMQLKQSTCEAVMILRSRFLDARRKRRNFNKQATEILNEYFYSHLSNPYPSEEAKEELAKKCGITVSQVSNWFGNKRIRYKKNIGKFQEEANIYAAKTAVTATNVSAHGSQANSPSTPNSAGSSSSFNMSNSGDLFMSVQSLNGDSYQGAQVGANVQSQVDTLRHVISQTGGYSDGLAASQMYSPQGISANGGWQDATTPSSVTSPTEGPGSVHSDTSN
notes: as for B1
B3: PBX1 L77A/V80A/L81A (natural protein, human, UniProt P40424 1-430, looked up)
chain: MDEQPRLMHSHAGVGMAGHPGLSQHLQDGAGGTEGEGGRKQDIGDILQQIMTITDQSLDEAQARKHALNCHRMKPAAFNAACEIKEKTVLSIRGAQEEEPTDPQLMRLDNMLLAEGVAGPEKGGGSAAAAAAAAASGGAGSDNSVEHSDYRAKLSQIRQIYHTELEKYEQACNEFTTHVMNLLREQSRTRPISPKEIERMVSIIHRKFSSIQMQLKQSTCEAVMILRSRFLDARRKRRNFNKQATEILNEYFYSHLSNPYPSEEAKEELAKKCGITVSQVSNWFGNKRIRYKKNIGKFQEEANIYAAKTAVTATNVSAHGSQANSPSTPNSAGSSSSFNMSNSGDLFMSVQSLNGDSYQGAQVGANVQSQVDTLRHVISQTGGYSDGLAASQMYSPQGISANGGWQDATTPSSVTSPTEGPGSVHSDTSN
notes: as for B1
B4: PBX1 L81A (natural protein, human, UniProt P40424 1-430, looked up)
chain: MDEQPRLMHSHAGVGMAGHPGLSQHLQDGAGGTEGEGGRKQDIGDILQQIMTITDQSLDEAQARKHALNCHRMKPALFNVACEIKEKTVLSIRGAQEEEPTDPQLMRLDNMLLAEGVAGPEKGGGSAAAAAAAAASGGAGSDNSVEHSDYRAKLSQIRQIYHTELEKYEQACNEFTTHVMNLLREQSRTRPISPKEIERMVSIIHRKFSSIQMQLKQSTCEAVMILRSRFLDARRKRRNFNKQATEILNEYFYSHLSNPYPSEEAKEELAKKCGITVSQVSNWFGNKRIRYKKNIGKFQEEANIYAAKTAVTATNVSAHGSQANSPSTPNSAGSSSSFNMSNSGDLFMSVQSLNGDSYQGAQVGANVQSQVDTLRHVISQTGGYSDGLAASQMYSPQGISANGGWQDATTPSSVTSPTEGPGSVHSDTSN
notes: as for B1
B5: PBX1 L108A (natural protein, human, UniProt P40424 1-430, looked up)
chain: MDEQPRLMHSHAGVGMAGHPGLSQHLQDGAGGTEGEGGRKQDIGDILQQIMTITDQSLDEAQARKHALNCHRMKPALFNVLCEIKEKTVLSIRGAQEEEPTDPQLMRADNMLLAEGVAGPEKGGGSAAAAAAAAASGGAGSDNSVEHSDYRAKLSQIRQIYHTELEKYEQACNEFTTHVMNLLREQSRTRPISPKEIERMVSIIHRKFSSIQMQLKQSTCEAVMILRSRFLDARRKRRNFNKQATEILNEYFYSHLSNPYPSEEAKEELAKKCGITVSQVSNWFGNKRIRYKKNIGKFQEEANIYAAKTAVTATNVSAHGSQANSPSTPNSAGSSSSFNMSNSGDLFMSVQSLNGDSYQGAQVGANVQSQVDTLRHVISQTGGYSDGLAASQMYSPQGISANGGWQDATTPSSVTSPTEGPGSVHSDTSN
notes: PBX1, residues 1-430; single alanine substitution; source: E. coli, purified
B6: PBX1 L105A (natural protein, human, UniProt P40424 1-430, looked up)
chain: MDEQPRLMHSHAGVGMAGHPGLSQHLQDGAGGTEGEGGRKQDIGDILQQIMTITDQSLDEAQARKHALNCHRMKPALFNVLCEIKEKTVLSIRGAQEEEPTDPQAMRLDNMLLAEGVAGPEKGGGSAAAAAAAAASGGAGSDNSVEHSDYRAKLSQIRQIYHTELEKYEQACNEFTTHVMNLLREQSRTRPISPKEIERMVSIIHRKFSSIQMQLKQSTCEAVMILRSRFLDARRKRRNFNKQATEILNEYFYSHLSNPYPSEEAKEELAKKCGITVSQVSNWFGNKRIRYKKNIGKFQEEANIYAAKTAVTATNVSAHGSQANSPSTPNSAGSSSSFNMSNSGDLFMSVQSLNGDSYQGAQVGANVQSQVDTLRHVISQTGGYSDGLAASQMYSPQGISANGGWQDATTPSSVTSPTEGPGSVHSDTSN
notes: as for B5
B7: PBX1 L77A/I84A (natural protein, human, UniProt P40424 1-430, looked up)
chain: MDEQPRLMHSHAGVGMAGHPGLSQHLQDGAGGTEGEGGRKQDIGDILQQIMTITDQSLDEAQARKHALNCHRMKPAAFNVLCEAKEKTVLSIRGAQEEEPTDPQLMRLDNMLLAEGVAGPEKGGGSAAAAAAAAASGGAGSDNSVEHSDYRAKLSQIRQIYHTELEKYEQACNEFTTHVMNLLREQSRTRPISPKEIERMVSIIHRKFSSIQMQLKQSTCEAVMILRSRFLDARRKRRNFNKQATEILNEYFYSHLSNPYPSEEAKEELAKKCGITVSQVSNWFGNKRIRYKKNIGKFQEEANIYAAKTAVTATNVSAHGSQANSPSTPNSAGSSSSFNMSNSGDLFMSVQSLNGDSYQGAQVGANVQSQVDTLRHVISQTGGYSDGLAASQMYSPQGISANGGWQDATTPSSVTSPTEGPGSVHSDTSN
notes: as for B1
B8: PBX1 L105A/L108A/L112A (natural protein, human, UniProt P40424 1-430, looked up)
chain: MDEQPRLMHSHAGVGMAGHPGLSQHLQDGAGGTEGEGGRKQDIGDILQQIMTITDQSLDEAQARKHALNCHRMKPALFNVLCEIKEKTVLSIRGAQEEEPTDPQAMRADNMALAEGVAGPEKGGGSAAAAAAAAASGGAGSDNSVEHSDYRAKLSQIRQIYHTELEKYEQACNEFTTHVMNLLREQSRTRPISPKEIERMVSIIHRKFSSIQMQLKQSTCEAVMILRSRFLDARRKRRNFNKQATEILNEYFYSHLSNPYPSEEAKEELAKKCGITVSQVSNWFGNKRIRYKKNIGKFQEEANIYAAKTAVTATNVSAHGSQANSPSTPNSAGSSSSFNMSNSGDLFMSVQSLNGDSYQGAQVGANVQSQVDTLRHVISQTGGYSDGLAASQMYSPQGISANGGWQDATTPSSVTSPTEGPGSVHSDTSN
notes: as for B1
B9: PBX1 L105A/L108A (natural protein, human, UniProt P40424 1-430, looked up)
chain: MDEQPRLMHSHAGVGMAGHPGLSQHLQDGAGGTEGEGGRKQDIGDILQQIMTITDQSLDEAQARKHALNCHRMKPALFNVLCEIKEKTVLSIRGAQEEEPTDPQAMRADNMLLAEGVAGPEKGGGSAAAAAAAAASGGAGSDNSVEHSDYRAKLSQIRQIYHTELEKYEQACNEFTTHVMNLLREQSRTRPISPKEIERMVSIIHRKFSSIQMQLKQSTCEAVMILRSRFLDARRKRRNFNKQATEILNEYFYSHLSNPYPSEEAKEELAKKCGITVSQVSNWFGNKRIRYKKNIGKFQEEANIYAAKTAVTATNVSAHGSQANSPSTPNSAGSSSSFNMSNSGDLFMSVQSLNGDSYQGAQVGANVQSQVDTLRHVISQTGGYSDGLAASQMYSPQGISANGGWQDATTPSSVTSPTEGPGSVHSDTSN
notes: as for B1

The binders below were run against T1, PREP1_(1-436), wild-type recombinant … (assay: time-resolved fluorescence immunoassay (TR-FIA); plate coated with monoclonal anti-PBX1; PBX1 pre-incubated with PREP1 or MEIS1 for 1 h on ice, 10 µg/mL in 1% BSA PBS, 1 h at room temperature on the plate; detected with anti-PREP1 or biotinylated anti-MEIS1/2 and Eu^3+ conjugates; normalised to the wild-type protein taken as 1). Conditions: both partners purified.
B1: binds. B2: binds. B3: binds. B4: binds. B5: binds. B6: binds. B7: binds. B8: binds. B9: binds.
